Measurements published in publication PMC4155161 (Structure(London, England:1993), 2014).

Assays:
p53 (Danio rerio) = p53 (Danio rerio) (UniProt P79734); conditions: cited from earlier work
[1] = biological target: the molecule itself; experiment: crystal structure; DRp53(302-346), two crystal forms (C222(1), 1.97 A; P2(1), 2.2 A), grown at 20 C with zinc acetate and polyethylene glycol
[2] = biological target: the molecule itself; experiment: SEC-MALS; DRp53(302-345) at 185, 46 and 9 uM (monomer concentration at the peak); room temperature, 50 mM Tris pH 7.5, 150 mM NaCl, Superdex 75 10/300
[3] = biological target: the molecule itself; experiment: SEC-MALS; DRp53(302-331) at high concentrations (170 and 870 uM monomer at the peak); room temperature, 50 mM Tris pH 7.5, 150 mM NaCl, Superdex 75 10/300

Molecule: p53 (from UniProt P79734)
- Kd (p53 (Danio rerio)): 3.6 nM

B1: zebrafish p53 tetramerization domain, DRp53(302-346) (domain or fragment, zebrafish (Danio rerio), UniProt G1K2L5 302-346, looked up)
chain: EEIFTLQVRGRERYEILKKLNDSLELSDVVPASDAEKYRQKFMTK
notes: numbering on UniProt/TrEMBL entry G1K2L5 (length of 374 amino acids); Crystallised construct; same vector and cleavage here; also called full-length tetramerization domain; long variant; not shown: His6, N-terminal, cleaved; lipoyl domain of B. stearothermophilus dihydrolipoamide acetyltransferase, N-terminal, cleaved
- binding result [1]: binds

B2: zebrafish p53 tetramerization domain, residues 302-345, DRp53(302-345) (domain or fragment, zebrafish (Danio rerio), UniProt G1K2L5 302-345, looked up)
chain: EEIFTLQVRGRERYEILKKLNDSLELSDVVPASDAEKYRQKFMT
notes: numbering on UniProt/TrEMBL entry G1K2L5 (length of 374 amino acids); Used for SEC-MALS; the two may be the same construct; not shown: His6, N-terminal, cleaved; lipoyl domain of B. stearothermophilus dihydrolipoamide acetyltransferase, N-terminal, cleaved; GGS, N-terminal, kept
- stoichiometry N [2]: 4

B3: zebrafish p53 tetramerization domain deletion variant lacking helix H2, DRp53(302-331) (domain or fragment, zebrafish (Danio rerio), UniProt G1K2L5 302-331, looked up)
chain: EEIFTLQVRGRERYEILKKLNDSLELSDVV
notes: numbering on UniProt/TrEMBL entry G1K2L5 (length of 374 amino acids); same vector and cleavage here; also called truncated domain; short variant; not shown: His6, N-terminal, cleaved; lipoyl domain of B. stearothermophilus dihydrolipoamide acetyltransferase, N-terminal, cleaved
- stoichiometry N [3]: 4
